Values quoted from earlier work, collected in article PMC2924770.
Read-outs that look alike come from different tables or passages of the source.

Tests used:
[1] = target: hemoglobin (Homo sapiens) (UniProt P69905)
[2] = target: hemoglobin (Homo sapiens) (UniProt P69905); remark: listed apart in the source

| Substance | Kd [1] | Kd [2] |
| --- | --- | --- |
| Kgp (from UniProt B2RLK2) | 3.92 nM | – |
| RgpA (from UniProt P28784) | – | 3.72 nM |
